In the assay the target is preformed PER1 1013-1291/WDR5 22-334 complex (mouse, UniProt O35973 1013-1291; P61965 22-334). As to the kind of experiment: SEC; PER1 1013-1291, CRY1 1-496 or CRY2 1-512 and WDR5 22-334: equimolar mixture (60 min, 4 °C) or PER1/WDR5 complex pre-formed overnight and then equimolar CRY added for 60 min; dimeric complexes run for comparison; S200 10/300; 25 mM HEPES pH 7.5, 300 mM NaCl, 5% glycerol, 1 mM DTT. The settings on record: both partners purified. (Size exclusion chromatography separates by hydrodynamic size, large species first.)

The text below walks through data of publication PMC13649712, “Role of PER-WDR5 interactions in the mammalian circadian clock” (Nature Communications, 2026).

B1: mouse CRY2-PHR (1-512) (domain or fragment)
chain: MAAAAVVAATVPAQSMGADGASSVHWFRKGLRLHDNPALLAAVRGARCVRCVYILDPWFAASSSVGINRWRFLLQSLEDLDTSLRKLNSRLFVVRGQPADVFPRLFKEWGVTRLTFEYDSEPFGKERDAAIMKMAKEAGVEVVTENSHTLYDLDRIIELNGQKPPLTYKRFQALISRMELPKKPAVAVSSQQMESCRAEIQENHDDTYGVPSLEELGFPTEGLGPAVWQGGETEALARLDKHLERKAWVANYERPRMNANSLLASPTGLSPYLRFGCLSCRLFYYRLWDLYKKVKRNSTPPLSLFGQLLWREFFYTAATNNPRFDRMEGNPICIQIPWDRNPEALAKWAEGKTGFPWIDAIMTQLRQEGWIHHLARHAVACFLTRGDLWVSWESGVRVFDELLLDADFSVNAGSWMWLSCSAFFQQFFHCYCPVGFGRRTDPSGDYIRRYLPKLKGFPSRYIYEPWNAPESVQKAAKCIIGVDYPRPIVNHAETSRLNIERMKQIYQQLSRY
notes: Cryptochrome-2 (CRY2), mouse, photolyase homology region, residues 1-512; pCoofy27; tag-free after cleavage; also called CRY2 1-512
In the case of B1, the binding result is listed as “binds”.

B2: mouse CRY1 1-496 (PHR) (domain or fragment)
chain: MGVNAVHWFRKGLRLHDNPALKECIQGADTIRCVYILDPWFAGSSNVGINRWRFLLQCLEDLDANLRKLNSRLFVIRGQPADVFPRLFKEWNITKLSIEYDSEPFGKERDAAIKKLATEAGVEVIVRISHTLYDLDKIIELNGGQPPLTYKRFQTLVSKMEPLEMPADTITSDVIGKCMTPLSDDHDEKYGVPSLEELGFDTDGLSSAVWPGGETEALTRLERHLERKAWVANFERPRMNANSLLASPTGLSPYLRFGCLSCRLFYFKLTDLYKKVKKNSSPPLSLYGQLLWREFFYTAATNNPRFDKMEGNPICVQIPWDKNPEALAKWAEGRTGFPWIDAIMTQLRQEGWIHHLARHAVACFLTRGDLWISWEEGMKVFEELLLDADWSINAGSWMWLSCSSFFQQFFHCYCPVGFGRRTDPNGDYIRRYLPVLRGFPAKYIYDPWNAPEGIQKVAKCLIGVNYPKPMVNHAEASRLNIERMKQIYQQLSRYRG
notes: pCoofy27; tag-free after cleavage; also called CRY1-PHR
As for B2, the binding result is “binds”.
